Data: US20260184782A1 (TWIST BIOSCIENCE, published 2026)

T1: recombinant human TIGIT (human, UniProt Q495A1 22-141, limits assumed)
T1 construct: recombinant human TIGIT used in Carterra SPR; also called hTIGIT
T1 sequence (looked up): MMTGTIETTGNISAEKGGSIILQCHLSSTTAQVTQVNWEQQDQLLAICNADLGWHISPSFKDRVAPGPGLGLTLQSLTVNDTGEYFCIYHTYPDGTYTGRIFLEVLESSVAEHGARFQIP


Biological target: T1, recombinant human TIGIT
Assay: SPR Carterra, average
Description: Binding affinities of VHH-Fc proteins to recombinant human TIGIT were measured by SPR using a Carterra instrument (Table 10A). […] Average values reported from measurements from 1-2 samples.

Row | Kd [nM] | koff [s⁻¹] | kon [M⁻¹ s⁻¹] | Binder
1 | 102 | 0.00688 | 67500 | TIGIT-SC137 (Fc fusion, VHH-Fc fusion in assay) VHH: EVQLVESGGGLVQPGGSLRLSCAASGFTLENNMMGWFRQAPGKEREFVAAISRSGTLKAYADSVKGRFTISADNSKNTAYLQMNSLKPEDTAVYYCSLVSGPRWYWGQGTLVTVSS
2 | 68.7 | 0.00474 | 68900 | TIGIT-SC140 (Fc fusion, VHH-Fc fusion in assay) VHH: EVQLVESGGGLVQPGGSLRLSCAASGNTFSGGFTFDRSWMGWFRQAPGKEREWVASVLRGGYTWYADSVKGRFTISADNSKNTAYLQMNSLKPEDTAVYYCAGDRYYDFWSGPNSGDYWGQGTLVTVSS
3 | 124 | 0.0335 | 444000 | TIGIT-SC174 (Fc fusion, VHH-Fc fusion in assay) VHH: EVQLVESGGGLVQPGGSLRLSCAASGFLFDSYAMGWFRQAPGKEREFVAAISWSGGSTYYADSVKGRFTISADNSKNTAYLQMNSLKPEDTAVYYCTTDALRFLEWPWWGQGTLVTVSS
4 | 119 | 0.0854 | 718000 | TIGIT-SC205 (Fc fusion, VHH-Fc fusion in assay) VHH: EVQLVESGGGLVQPGGSLRLSCAASGFTFDRSWMGWFRQAPGKEREFVAAIWRSGTLKAYADSVKGRFTISADNGKNTAYLQMNSLKPEDTAVYYCAEGGTTAWGWFVPWGQGTLVTVSS
5 | 114 | 0.00252 | 29700 | TIGIT-SC118 (Fc fusion, VHH-Fc fusion in assay) VHH: EVQLVESGGGLVQPGGSLRLSCAASGRTFSFMGWFRQAPGKEREWVASVLRGGYTWYADSVKGRFTISADNSKNTAYLQMNSLKPEDTAVYYCAKDGGWFDPWGQGTLVTVSS
6 | 113 | 0.0176 | 166000 | TIGIT-SC96 (Fc fusion, VHH-Fc fusion in assay) VHH: EVQLVESGGGLVQPGGSLRLSCAASGMTTIGPMGWFRQAPGKEREFVAAINWSGSSTVYADSVKGRFTISADNSKNTAYLQMNSLKPEDTAVYYCVTYSAYDFRNAWGQGTLVTVSS

The next lines start with the binder.

Row | Binder | Kd [nM] | koff [s⁻¹] | kon [M⁻¹ s⁻¹]
7 | TIGIT-SC30 (Fc fusion, VHH-Fc fusion in assay) VHH: EVQLVESGGGLVQPGGSLRLSCAASGRSFSSDWIGWFRQAPGKERELVAAIDWSGGSALYADSVKGRFTISADNSKNTAYLQMNSLKPEDTAVYYCARVNWNNVGWFDPWGQGTLVTVSS | 67.3 | 0.0155 | 231000
8 | TIGIT-SC204 (Fc fusion, VHH-Fc fusion in assay) VHH: EVQLVESGGGLVQPGGSLRLSCAASGFLFNSYWMVWFRQAPGKEREFVAAIWRSGTLKAYADSVKGRFTISADNSKNTAYLQMNSLKPEDTAVYYCAADVNYGSTWRNWGQGTLVTVSS | 66.7 | 0.00339 | 50800
9 | TIGIT-SC142 (Fc fusion, VHH-Fc fusion in assay) VHH: EVQLVESGGGLVQPGGSLRLSCAASGFSFDRWAMGWFRQAPGKEREFVAAIGWSGNLKAYADSVKGRFTISADNSKNTAYLQMNSLKPEDTAVYYCASGDGYSMDYFDPWGQGTLVTVSS | 66.5 | 0.0213 | 320000
10 | TIGIT-SC45 (Fc fusion, VHH-Fc fusion in assay) VHH: EVQLVESGGGLVQPGGSLRLSCAASGGTFNAMGWFRQAPGKEREWVASVLRGGYTWYADSVKGRFTISADNSKNTAYLQMNSLKPEDTAVYYCAKDGGSSGTYQNWWGQGTLVTVSS | 103 | 0.00929 | 89900
11 | TIGIT-SC109 (Fc fusion, VHH-Fc fusion in assay) VHH: EVQLVESGGGLVQPGGSLRLSCAASGRDISSYIMGWFRQAPGKERELVAIIDTNGDDTLYADSAKGRFTISADNSKNTAYLQMNSLKPEDTAVYYCANGGRVWWAFDYWGQGTLVTVSS | 121 | 0.00468 | 38700
12 | TIGIT-SC27 (Fc fusion, VHH-Fc fusion in assay) VHH: EVQLVESGGGLVQPGGSLRLSCAASGLTFSNYVMGWFRQAPGKEREVVAGILSDGRELYADSVKGRFTISADNSKNTAYLQMNSLKPEDTAVYYCARDVFGEGHWGQGTLVTVSS | 80.6 | 0.00624 | 80900
